{"source": "the DeepSol protein solubility set", "data": [{"experiment": "soluble on expression in E. coli; label from the status in PepcDB or PDB records", "values": [{"sequence": "TPMRSPIIWINGPFGVGKTHTAHTLHERLPGSFVFEPEEMGQALRKLTPGFSGDPQEHPMWIPLMLDALQYASREAAGPLIVPVSISDTARHRRLMSGLKDRGLSVHHFTLIAPLNVVLERLRRDGQPQVNVGTVEDRLNELRGEQFQTHIDTAGLGTQQVAEQIAAQVGLTLAPPPQGALHW", "soluble on expression in E. coli": "soluble"}, {"sequence": "MSLSKHSHYKDKKKFYKKVEQFKEFQERISVHFQNEKLLYQAFTHSSYVNEHRKKPYEDNERLEFLGDAVLELTISRFLFAKYPAMSEGDLTKLRAAIVCEPSLVSLAHELSFGDLVLLGKGEEMTGGRKRPALLADVFEAFIGALYLDQGLEPVESFLKVYVFPKINDGAFSHVMDFKSQLQEYVQRDGKGSLEYKISNEKGPAHNREFEAIVSLKGEPLGVGNGRSKKEAEQHAAQEALAKLQKHHTKQEGGSHHHHHH", "soluble on expression in E. coli": "soluble"}, {"sequence": "LKISTKGRYGLEAIVDLAIHSSEGRVSLKSIAERCGMSEAYILQIFLILRRAGIVESIRGAQGGYVLARDPSQITVGEILTVLEGPLAPVPCIAEKTKRSKSSCERYENCTARSFWEKIMNTLNDVANSITVEDLVKCYNSTVSQNTELEYYI", "soluble on expression in E. coli": "soluble"}, {"sequence": "MKKHIALIFTPINKKYKDALTHYAPPLGLVALANYISERLQNVRISILDGSVTHSMEDIIKFIEDEKPDIVAQSVQLISYENSLVIAKSAHNIGSINVLGGQHATQMADAIIFRQQGLIDYVSIEDGEESLLGLLEERDISEIPNLVFMKDGKINRTKYFQLDLKNAPKLDYSIVDFKPYQKLLNESNFTNPNPINNYLRVYSHKGCGNRKNSVGCVFCGRADKGVRFKSPEKFWEDIKICADEFKADYIFDVGDDFLYNHDWVSKVAEIKPDIRKKFELGIFARANRVNLSIAKKLKKIGVTDVVIGFESGDEEVLRRCNKRDTSTETSLIAADALATAGIDITASFVLGLPGENSESLKKTIKCAEKVVNIITEKLGRPPREMVGNLIEPSPGSIAYNQLLKAYPGKYYLNDYVPLDEMQRDYFKYYFGLDSLKSYLEFRKELNKAAQEIHGLVSFSDSQGWLEDEFV", "soluble on expression in E. coli": "not soluble"}, {"sequence": "EFIHGVYVDTSLHRNFVNLQQASLMAEGGVTGGISLLRNLRTSGNDQGLQQLLADPVQFEDEKGRVSITIEEEDGKLNLNAVTLPNGDEHVFYGPAERRLLTALKLPTALHDSLADWLDANDEPRPDGGESAYYQSLSAPYAPRNAPFATFGELGLVRGVEPAVLERLRPFATVFVDGGAINVNTAPLQVLMALDEGISEGIARDIMQRRRIKPFKSVGELSEIPGMETIAGKLSGFAGARGSTYRLVSRAAVGDVTRLVEAVVNLDGTQPRYLY", "soluble on expression in E. coli": "not soluble"}, {"sequence": "ARIMKAIFVLNAAPKDNTWYAGGKLGWSQYHDTGFYGNGFQNNNGPTRNDQLGAGAFGGYQVNPYLGFEMGYDWLGRMAYKGSVDNGAFKAQGVQLTAKLGYPITDDLDIYTRLGGMVWRADSKGNYASTGVSRSEHDTGVSPVFAGGVEWAVTRDIATRLEYQWVNNIGDAGTVGTRPDNGMLSLGVSYRFGQEDAAPVVAPAPAPAPEHHHHHH", "soluble on expression in E. coli": "soluble"}, {"sequence": "MKNKGLLLKVSTGLAAVSFLFSEYLFKISFKRVDHVPETSQEKQKYAASYWEYVDWFRRINKEHWTFQTKNETERMSAYFIPSKEENSKKVVIIAHGYKGNGETMSSYAKMFYEMGFNVLLPDDRGHGQSMGEYISFGWLDRLDYLQWLKKIIKRVGPKSEILLFGVSMGASTVEMLSGEDLPSQVKCVIADCGYSSIDEEMTFLLKHHYHLPKYPFYPLVSTINRYRLGYYLGDVSSVEQLKKNKLPIFFIHGENDDYVPSYMSLENYEATTAAKELWIVNNATHAESYWLDPLEYKKRIKDFLNKYFNDKN", "soluble on expression in E. coli": "not soluble"}, {"sequence": "MDQPWNANIHYDALLDAMVPLGTQCVLDVGCGDGLLAARLARRIPYVTAVDIDAPVLRRAQTRFANAPIRWLHADIMTAELPNAGFDAVVSNAALHHIEDTRTALSRLGGLVTPGGTLAVVTFVTPSLRNGLWHLTSWVACGMANRVKGKWEHSAPIKWPPPQTLHELRSHVRALLPGACIRRLLYGRVLVTWRAPVLEHHHHHH", "soluble on expression in E. coli": "not soluble"}, {"sequence": "MGSDKIHHHHHHMTQLPNFSQSLSQLIACPSISSTQPSWDQGNKEVIQLLATWFEQLDFNIEIQAVPNTSNKFNLLAKLGSGEGGLLLAGHSDTVPFDENRWQSNPHTVVNQDDKFFGLGTCDMKGFFAFILQVCKNLRADQLKKPLYILATADEETTMAGARFFAKSQAIKPDVAIIGEPTNLVPVVMHKGHMSHRISVEGKSGHSSKPNLGINAIEIMYKVIGQLIELKEKFQLNYENQAFDVPAPTLNLGAISGGDNANRICGHCHLDIDLRSLPGMSDDELINWLSEALKPLAELYPGRISFEEMHPSSPSFEQKKPSTLIDIAQEISGHSCCAVNYATEAPYIQQLGCQTIVLGPGSIDQAHQPNEFLAHSEIDKTEKLLTKMIQHYCL", "soluble on expression in E. coli": "not soluble"}, {"sequence": "MMTQQELEKYLWGAATTLRGTIDAGDYKQYIFPLMFFKRICDVYDEEFENALAESDGDLEYAAFAENHHFQVPKGAHWNDVRETTTNIGLALQNAMRAIEKANPDTLEGIFGDASWTNKERLSDAMLTNLIEHYSEQTLNLKNVPDDKLGNAYEYLIKEFADDSGHTAAEFYTNRTVVKLMTMIMAPQPGESVYDPTCGSGGLLLNCALHLKDEGKEYRTLKLYGQEINLLTSAIARMNMFMHGIEEFDIVRGNTLSNPGLLENDELKKFNVILANPPYSIKSWDRKAFESDPYGRNVWGTPPQGCADYAFQQHIQKSLDLGNGRSISLWPHGILFRDAETAMRRKMIEQDQVECVIGLGPNLFYNSPMEACLLITKTNKIESKKDKILFINAVKEVRQDKNIGYLDQVHIDKIFNAYNKFENEDSFAVLVDKQEVLDKKANMAINLYIRPDSLVSSEEACFATAYQEWQQSSGDLKQSMEKLFKELV", "soluble on expression in E. coli": "not soluble"}, {"sequence": "GMTGAVETESMKTVRIREKIKKFLGDRPRNTAEILEHINSTMRHGTTSQQLGNVLSKDKDIVKVGYIKRSGILSGGYDICEWATRNWVAEHCPEWTEGQPIILNEEGDFTLGPLPE", "soluble on expression in E. coli": "soluble"}, {"sequence": "MGSDKIHHHHHHMSDSQTVSAAVAKLYNTYPFPPEALLDEPPPGYNWRWNWLAAHNFCTGQKPQKQDIRILDAGCGTGVSTEYLVHLNPQASVVGIDLSTGALDVAKERCQRSGANRVEFHHLSLFDVEQLPGEFDLINCVGVLHHTSDPIRGIQALAQKLAPGGLMHIFVYGELGRWEIQLMQKAIALLQGDKKGDYRDGVQVGRQIFASLPENNRIVKYEKQRWSLENHKDEHFADMYVHPQEIDYNIETLFELIDASGLEFIGFSNPSFWDLERLLSKAPELVERAKELSDRQLYRLIELLDPEVTHYEFFLGRPPLVKTDWSDDKALLAAIPELNPCIEGFPSQCFFNYNYQIVNLSEPEFEFMQKCDANSTVAEILADVQLGLDEVRKLLQQQLILLAPA", "soluble on expression in E. coli": "not soluble"}, {"sequence": "GSAMRSAQVYRWQIPMDAGVVLRDRRLKTRDGLYVCLREGEREGWGEISPLPGFSQETWEEAQSVLLAWVNNWLAGDCELPQMPSVAFGVSCALAELTDTLPQAANYRAAPLCNGDPDDLILKLADMPGEKVAKVKVGLYEAVRDGMVVNLLLEAIPDLHLRLDANRAWTPLKGQQFAKYVNPDYRDRIAFLEEPCKTRDDSRAFARETGIAIAWDESLREPDFAFVAEEGVRAVVIKPTLTGSLEKVREQVQAAHALGLTAVISSSIESSLGLTQLARIAAWLTPDTIPGLDTLDLMQAQQVRRWPGSTLPVVEVDALERLL", "soluble on expression in E. coli": "soluble"}, {"sequence": "MNIVITGGTGLIGRHLIPRLLELGHQITVVTRNPQKASSVLGPRVTLWQGLADQSNLNGVDAVINLAGEPIADKRWTHKQKERLCQSRWNITQKLVDLINASDTPPSVLISGSATGYYGDLGEVVVTEEEPPHNEFTHKLCARWEEIACRAQSDKTRVCLLRTGVVLAPDGGILGKMLPPFRLGLGGPIGSGRQYLAWIHIDDMVNGILWLLDNELRGPFNMVSPYPVRNEQFAHALGHALHRPAILRVPTTAIRLLMGESSVLVLGGQRALPKRLEEAGFAFRWYDLEEALADVVR", "soluble on expression in E. coli": "not soluble"}, {"sequence": "MAHHHHHHMLTDNQNCLEMERSDKRVTVALINTRSGERTAAEFVRKQMETHLGEENVFYLFPSGKPAIAEAKKFLERHNPAVVIVAGGDGTVSLALDITDGLRRTNMLSATSAYVAVLPMGTGNDLSRTLGFGGGYVKPLLNPEKKFKRLLDRLAHAKGIKMDRWSVQIQKKSTLTVASTGEDAHAGDSSRTYGVDDVHVVEKTMMNYFSIGFDATIVRQFNDFRNDHPTMCSQRSLNKLWYGCFGCGSMCNSVALPRKQMKLTVDDKCVAIPPGTKALLVTNVKTYAGGAVLWKDNRCRFAKPDVGDGLLEVTALYGVWHFAGVRMGIRKAMKVAQGNCIRIETPAYFAMQLDGEPVDELACGEEMIDVSITFFSRTLVMTCEGS", "soluble on expression in E. coli": "not soluble"}, {"sequence": "MAHHHHHHMDAAWEAHIRLDPATDAAMRSNSGSRANSGGAGTPPVTLAPPEHPFNVMSFNTASAGCSIAHCGFLRGREEDFLREVVQRLQPSSSPSAARHLLYVITSANDVYVVDVKTEVVFLHWAGGASTSGCSSSSSEASASPLGAQFIVTQAETYGALMYLTVARRSSVKTATEQAASRGCHLFSGGGGPERNVYQRCNDPAVYVLHLGCTKPLAASTTKAFIAGGGAYVIQAVSKDKPHPTSKHSRSNAASATASAGALSIRAPSVGASAATAAERIGSAGVCRRRRRWGGDPEEGAADLLRCQRTPRPQPVIDAQFVPSAAVLVPCHGAGHSSSSCKWICRNVQILLVTPTRQQLLCTAGRRRNGRREQRGPL", "soluble on expression in E. coli": "not soluble"}, {"sequence": "CTRAVYIGPDHMVVTGRTMDWKEDIMSNIYVFPRGIQRAGYNKENAVKWTSKYGSVIATGYDIGTCDGMNEKGLVASLLFLPESVFDRPGDTRPVMGISIWTQYVLDNFATVHEAVEELKKESFRIDAPHMPNGSASTLHLAITDETGNTAVLEYLDGNLSIHEGKEFQVMTNSPRYDYQLAINDYWKEVGGLQMLPGTNRSSDRFVRASFYIHAIPQTPDAKIAVPSVLSVMRNVSVPFGITTPDKPHISSTRWRSVSDQKNKIYYFESVMTPNLFWLDLKKIDFSPKAGIKKLPLTNGKIY", "soluble on expression in E. coli": "not soluble"}, {"sequence": "MYGAVVVAGDHQRGAGVGMLRTRKLAQVAEINVVKSLDYLRLWHPILQNLRGRDFPTIELLLLRWRPARSAPPLSPPRTQDFENPWSPKSHRTALPWVFVFLSSRSRDRGPKNPTRAQWVPMNR", "soluble on expression in E. coli": "not soluble"}, {"sequence": "MGSDKIHHHHHHMSLNKNLNDIEKSQLIELMHESLRIRSHFELFLWMQGKLQVFLPHEIMITAWGDFSLGVIYFNIVSPLPGIRSDKIASHEINQFLQNLFNYWLNHAKAPFTLAAADNILHDCEFSNKESSYYLKNMKSALVHAIKDHRGRHDCLYVLLSSNLSFPPASRPMLEALLPYIDSALRQIEHLPEQQPTLIKAEPEPKDESLNILSGRELEIMDWVTKGKTNQEIGMILDISAFTVKNHLQRIFKKLNVMNRAQAVAKFRK", "soluble on expression in E. coli": "not soluble"}, {"sequence": "MMSGQGKRLMVMAGGTGGHVFPGLAVAHHLMAQGWQVRWLGTADRMEADLVPKHGIEIDFIRISGLRGKGIKALIAAPLRIFNAWRQARAIMKAYKPDVVLGMGGYVSGPGGLAAWSLGIPVVLHEQNGIAGLTNKWLAKIATKVMQAFPGAFPNAEVVGNPVRTDVLALPLPQQRLAGREGPVRVLVVGGSQGARILNQTMPQVAAKLGDSVTIWHQSGKGSQQSVEQAYAEAGQPQHKVTEFIDDMAAAYAWADVVVCRSGALTVSEIAAAGLPALFVPFQHKDRQQYWNALPLEKAGAAKIIEQPQLSVDAVANTLAGWSRETLLTMAERARAASIPDATERVANEVSRVARALEHHHHHH", "soluble on expression in E. coli": "soluble"}, {"sequence": "DNRLKEENPDSTLRDTEYIDVGESPDGGKYRGVILFELGQLNKTNKIEKATLSLFWYYPEESRKEDTILEVYRPEKWCEEHISWGAREINTPWKNPGGDWYDKNGVSQGSTPYSTITFKSSSLPDNRYYELDVTELVREYISGKYENTGFLIKSRAEDSDYIAFYSSEWQNKNQMPRLSIEYKNE", "soluble on expression in E. coli": "not soluble"}]}]}
